The source of these data is the nanobody polyreactivity screen of Harvey et al. (2022).

The series in a line: yeast display, Sf9 membrane polyspecificity reagent, FACS + sequencing; frameworks hold sequencing errors. An outline of the steps: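 Nanobodies came from a synthetic yeast display library in Saccharomyces cerevisiae BJ5465, induced with galactose for 36–48 hours and stained for 1 hour at 4 °C with 10% biotinylated, detergent-solubilized Sf9 membrane reagent. Cells were enriched on streptavidin microbeads and then FACS-sorted, with low and high (top ~1%) gates set on anti-HA fluorescence for expression and streptavidin fluorescence for reagent binding. Each polyreactivity label reflects the gate a clone came from. Genes were amplified by colony PCR, sequenced by MiSeq 2 × 250 and filtered by CDR length.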
With “QVQLVESWGGLVQAGGSLRLSCAASGSIFSYYGMGRYRQARGKERELVAAITRSTGSTYYADSVKGRFTISRDNAKNTVYLQMNSLKPEDTAVYYCATDYVVLWEFDYWGQGTQVTVSS”, the “polyreactivity (PSR sort gate)” value is “low polyreactivity”.

Turning to “QVQLVESWGGLVQAGGSLRLSCAASGSTFAVNAMGCYRQAPGKERELVDAITVSGGSTDYAYSVKRPFTISRDNAKYSVYLQLNRLKPEDTGVYYCADVRMKYYIYGGYDYWGQGTQVNVSS”, the “polyreactivity (PSR sort gate)” value is recorded as “low polyreactivity”.

For “QVQLVESWGGLVQAGGSLRLSCAASGTTFTVYAMGWYRQAPGKERELVAAISWSTGRTYYADSVKGRFTISRDHAKNTVYLQMNSLKPEDTAVYYCAARVSYYRTPAEYGYWGQGTQVTVSS”, the “polyreactivity (PSR sort gate)” value was “high polyreactivity”.

For the sequence “QVQLVESWGGLVQAGGSLRLSCAASGYIFDRYAMGWYRQAPGKERELVAAISGRGGSTYYADSVKGRFTISRDNAKNTVYLQMNSLKPEDTAVYYCARDVYVRNGQRARYDSWGQGTQVTVSS”, the “polyreactivity (PSR sort gate)” value is on record as “high polyreactivity”.

With “QVQLVESWGGLVQAGGSLRLSCADSGRIFRGYGMGWYIQAPGKERELVAVISYSGTPTYYADSVKGRFTISRDNAKNTVYLQMNSLKAEDTAVYYCAARLYWIPPSPSRYDYWLQGTQVTVSS”, the “polyreactivity (PSR sort gate)” value is “high polyreactivity”.

“QVQLVESWGGLVQAGGSLRLSCDASGSTFDGNDMGWSRPAPGKQRELVAAITIGGGSTYYADSVKGRFTISRDNAKNTVYLQMNSLKPEDTADYYCATEWVTGSEDYDYWGQGTQVTVSS”: the “polyreactivity (PSR sort gate)” value is listed as “low polyreactivity”.

Consider “QVQLVESWGGLVQAGGSLRLSCPASGYIIQTYAMGWYRQAPGKEREFLAAMTSGAGRTSYADSVKGRFTISRDNAKNTVYLQLHRLKPEDTAVYFCAARWRYQLSGSRLSYGKYDYWGQGTQVTVSS”, for which the “polyreactivity (PSR sort gate)” value is on record as “high polyreactivity”.

Turning to “QVQLVESWGGLVQAGGSLRLSCSAYGYTFTLTPMGWSRQAPGKERELVAAISRSGGSTYYADSVKGRFTISRDNAKNTVYLQMISLKPEDTAVYYCDADGYSGYDYWGQGTLVTVSS”, the “polyreactivity (PSR sort gate)” value is listed as “low polyreactivity”.

As to “QVQLVESWGGLVQAGGSLSLSCAASGSIFAANAMGWYRQAPGKERELVAAISWSGGSTYADSVKRRFTISRDNEKNTVYLQRNSLKPEDTAVYYCAADLCSQYKFGYCGQGTQVTVSS”, the “polyreactivity (PSR sort gate)” value was “low polyreactivity”.

In the case of “QVQLVESWGGLVQAGRSLRLSCAASGRTFYNYAMGWYRQAPGKERELVAAITRGGSTYYADSVKGRFTISRDNAKNTVYLHMNSLKPEDTAVYFCNAKYIKGRDWGQGTQVTVSS”, the “polyreactivity (PSR sort gate)” value is “high polyreactivity”.

As for “QVQLVESWGGLVQEGGSLRVSCAASGSIFSHYAMGRYRQAPGKEREFVAAIPRGVSTYYADSVKGRFTISRDNAKNTVYLLMNSLKPEYTGVYSCNKTYVRGVHGVYLPITSYDYWGQGTQVTVSS”, the “polyreactivity (PSR sort gate)” value is “low polyreactivity”.

“QVQLVESWGVLVQAGGSLRLSCAASGYTFLVYAMGWYRQAPGKERELVAGITRGSSTYADSVKGRFTISRDNAKNTVYLQMNSLKPEDTAVYYCAARFAKQDYDYWGQGTQVTVSS”: the “polyreactivity (PSR sort gate)” value is recorded as “high polyreactivity”.

As for “QVQLVETGGCLVQAGCSLRLSCAASGIIFYEYAMGRYRQAPGKERELVAAIDWSGGSTYYADSVKGRFTISRDNAKNTVYLQMNRLKPEDSAVYYCAAQWAWVDYFGNWYASTYDYWGQGTQVTVSS”, the “polyreactivity (PSR sort gate)” value was “high polyreactivity”.

As to “QVQLVETGGGIVQAGGSLRLSCASSGRTFNKYAMGRYRKAPGKERELVAAINYSGGRTDYADSVKGRFTISRDNAKNTVYLQMNSLKPDDTAVYYCAASPTFFVWQGYNYWGQGTQVTVSS”, the “polyreactivity (PSR sort gate)” value is on record as “low polyreactivity”.

Regarding “QVQLVETGGGIVQAGVSLRISCASSGRTFRWYAMGWSRQSPGKERELVAAITSGGGTYYADSVKGLFTISRDYAKNTVYLQMNRLKREDTAVYYCNKLHRDRYDYWGQGTQVTVSS”, the “polyreactivity (PSR sort gate)” value was “high polyreactivity”.

With “QVQLVETGGGLVHAGGSLRLSCAASGRTFEPNAMGWYRQAPGKERELVATISYSGGRTNYADSVKGRFTISRDNAKNTVYLQMKILKPEDTAVYYCATRTYYRRVCIRDFWGQGTLVTVSS”, the “polyreactivity (PSR sort gate)” value is “high polyreactivity”.

“QVQLVETGGGLVQAGGRLRLSCAASGRIFVYYDMGWSIQAPGKERELVAAITSGGDRTYYADSVKGRFTISRDNAKNTVYLQMNSLKPEDTAVYYCNTYYYPYGYWGQGTQVTVSS”: the “polyreactivity (PSR sort gate)” value is listed as “high polyreactivity”.

In the case of “QVQLVETGGGLVQAGGSHRLSCAASVRTLYKNAMGWYRQEPGKERELVAAISVSGGRTYYADSVKGRFTISRDNAKNTVYFQMNSLKPEDTAVYYCATRLYPISKYGYWGQGTQVTVSS”, the “polyreactivity (PSR sort gate)” value is given as “high polyreactivity”.

For the sequence “QVQLVETGGGLVQAGGSLRLICAASASTFGYYAMGWYRQAPGKERELVAGIRYRGGSTSYADSVKGRFTISRDNAKNTVYLQLNSLKREDTAVYYCANGIYRGRTSSFRMGYWGQVTQVTVSS”, the “polyreactivity (PSR sort gate)” value was “low polyreactivity”.

On to “QVQLVETGGGLVQAGGSLRLSCAASGFIFIHNAMGWYRQAPGKERELVAAISYSGGSTYYADSVKGRFTISRDNEKNTVYLQMNSLKPEDTAVYYCAARGALHHWYRYDDWGQGTQVTVSS”, for which the “polyreactivity (PSR sort gate)” value is recorded as “low polyreactivity”.

For the sequence “QVQLVETGGGLVQAGGSLRLSCAASGFTFRPYVMGWYRQPPGKERELVAGITWDGDSTYYADSVKGRFTISRDNPKNTVYLQMNSLKPEDTAVYYCAAEDADWVSQYYYWGQGTQVTVSS”, the “polyreactivity (PSR sort gate)” value was “high polyreactivity”.

“QVQLVETGGGLVQAGGSLRLSCAASGFTFWYNDMGWYRQPPGKEREFVAAINSGGSTNDADSVKGRFTISRDNAKNTVYLQMNSLKPEDTAVYYCNADWFTPAQPWYRYFIRYDYWGQGTQVTVSS”: the “polyreactivity (PSR sort gate)” value was “low polyreactivity”.

Turning to “QVQLVETGGGLVQAGGSLRLSCAASGFTILGYDMGWYRQAHGKERELVAAFDYSGGSTYYADSVKGRFTISRDNAQNTVYLQMNSLKPEDTAVYYCAAYTGKGRAYFRWMDYWGQGTQVTVSS”, the “polyreactivity (PSR sort gate)” value is listed as “high polyreactivity”.

Regarding “QVQLVETGGGLVQAGGSLRLSCAASGFTIQRYAMGWYRQAPGKEREFVAAITSGGSTYYADSVKGRFTISRDNAKNTVYLQMNSLKPEDTAVYYCATRAVWSSWGRRYDSWGQGTQVTVSS”, the “polyreactivity (PSR sort gate)” value is given as “high polyreactivity”.

On to “QVQLVETGGGLVQAGGSLRLSCAASGFTSLTYAMGWYRQAPGKERELVAAITFSGGSTYYADSVKGRFTISRDNAKNTVYLQMNSLKPEDTAVYYCARDGLWYNAIWEYDYWGLGTQVTVSS”, for which the “polyreactivity (PSR sort gate)” value is given as “high polyreactivity”.

In the case of “QVQLVETGGGLVQAGGSLRLSCAASGIIFYGYAMGWYRQAPGKERELVAAITYSGGSTYYADSVKGRFTISRDNAKNTVYLQMNSLKPEDTAVYYCRYDIWVWWSGAYDYWGQGTQVTVSS”, the “polyreactivity (PSR sort gate)” value is on record as “low polyreactivity”.

“QVQLVETGGGLVQAGGSLRLSCAASGIIIGYYAMGWYRQAPGKEREMVAAINQDGSSTYYADSVKGRFTISRDNAKNTVYLQMNSLTPEDTAVYYCNARGVPRQDARMGYWGQGTQVTVSS”: the “polyreactivity (PSR sort gate)” value is “low polyreactivity”.

As to “QVQLVETGGGLVQAGGSLRLSCAASGITFSDNAMGWYIQAPVKERELVADISYGGGNTYYADSVQGRFTISRDNAKYTVYLQMNSLKPEDTAVYYCAAVYYFLWYGYYLALDYWGQGTQVTVSS”, the “polyreactivity (PSR sort gate)” value was “high polyreactivity”.

Take “QVQLVETGGGLVQAGGSLRLSCAASGLIFRNNVMGWYRQAPGKERELVAAIRESGGRTYYADSVKGRFTISRDNAKNTVYLQMNSLKPEDTAVYYCAADSRVGFGRLYGYWGQGTQVTVSS”: the “polyreactivity (PSR sort gate)” value is on record as “high polyreactivity”.

Consider “QVQLVETGGGLVQAGGSLRLSCAASGNMFVTYDMGWYRKAPGKERELVASISWNGGSTNYADSVKGRFTISRDNAKNTVYLQMNSLKPEDTAVYYCAVDYARDKGYPYGYWGQGTQVTVSS”, for which the “polyreactivity (PSR sort gate)” value is recorded as “low polyreactivity”.

In the case of “QVQLVETGGGLVQAGGSLRLSCAASGRIFEIYAMGWYRQAPGKERELVAAIDESGGSTYYADSVKGRFTISRDNGKNTVYLQMNSLKPEDTAVYYCATDDTWTITYGWYWFTYEYWGQCTQVTVSS”, the “polyreactivity (PSR sort gate)” value is listed as “low polyreactivity”.

“QVQLVETGGGLVQAGGSLRLSCAASGRIFKRNTMGWYRQAPGKEREFVASITFSGGSTNYADSVKGRFTISRDNAKNTVYLQMNSLKPEDTAVYYCAARDYHYSTYDYWGQGTQVTVSS”: the “polyreactivity (PSR sort gate)” value is listed as “low polyreactivity”.

In the case of “QVQLVETGGGLVQAGGSLRLSCAASGRIFRFYDMGWYRQAPGQERELVATINPTGGSTSYADSVKGRFTISRDNAKNTVYLQMNSLNPEDTAVYYCAADSWYSVRKTWSRSGSFPFDYWGQGTQVTVSS”, the “polyreactivity (PSR sort gate)” value is listed as “high polyreactivity”.

In the case of “QVQLVETGGGLVQAGGSLRLSCAASGRIFWLYAMGWYRQAPGKERELVASISSGGTTHYADSVKGRFTISRDNAKNTVYLQMNSLKPEDTAVYYCAVRPYYSWAYYYWGQGTQVTLSS”, the “polyreactivity (PSR sort gate)” value is recorded as “high polyreactivity”.

“QVQLVETGGGLVQAGGSLRLSCAASGRTFARNAMGWYRQAPGKERELVAAISRRGGNTYYADSVKGRFTISRDNAKNTVYLQMNSLKPEDTAVYYCAVRWPSARIPVKLDYWGQGTQVTVSS”: the “polyreactivity (PSR sort gate)” value was “high polyreactivity”.

Turning to “QVQLVETGGGLVQAGGSLRLSCAASGRTFARYAMGWYRQAPGTERELVAAISWGGTRTYYADSVKGRFTISRDNAKNTVYLQMNSLKPEDTAVYYCAATYLYRDQPKWGGFAYTYGLWGQGTQVTVSS”, the “polyreactivity (PSR sort gate)” value is given as “high polyreactivity”.

For “QVQLVETGGGLVQAGGSLRLSCAASGRTFTRYAMGWYRQAPGKERELVAAISSSGASTYYADSVKGRFTISRDNAKNTVYLQMNSLKPEDTAVYYCAAKQTRPSGFGYWGQGTQVTVSS”, the “polyreactivity (PSR sort gate)” value was “high polyreactivity”.

For “QVQLVETGGGLVQAGGSLRLSCAASGRTIRKYAMGWYRQAPGKERELVAAISWSGGSTYYANSVKGRFTISRDNAKNTVYLQMKSLKPVDTEVYYCAAVPVHTGSLYWGFTTGYDYWGQGTQVTVSS”, the “polyreactivity (PSR sort gate)” value is “low polyreactivity”.

For “QVQLVETGGGLVQAGGSLRLSCAASGRTYRFNAMGWYRQAPGKERELVASINSGVRTYYADSVKGRFTISRDNAKNTVYLQMNSLKPEDSAVYYCAARYRVRYYERDYWGQGTQVTVSS”, the “polyreactivity (PSR sort gate)” value is reported as “high polyreactivity”.

Take “QVQLVETGGGLVQAGGSLRLSCAASGRTYVYNAMGWYRQAPGKERELVAAIDGGGDRTYYADSVKGRFTISRDNAKNTVYLQMNSLKPEDTAVYYCARDPGDTYYYSYQEGDYWGQGTQVTVSS”: the “polyreactivity (PSR sort gate)” value was “low polyreactivity”.
